IntAct's records for PubMed 15143060

Target: gga1_human GGA1 (UniProt Q9UJY5)
Sequence (Q9UJY5 whole entry): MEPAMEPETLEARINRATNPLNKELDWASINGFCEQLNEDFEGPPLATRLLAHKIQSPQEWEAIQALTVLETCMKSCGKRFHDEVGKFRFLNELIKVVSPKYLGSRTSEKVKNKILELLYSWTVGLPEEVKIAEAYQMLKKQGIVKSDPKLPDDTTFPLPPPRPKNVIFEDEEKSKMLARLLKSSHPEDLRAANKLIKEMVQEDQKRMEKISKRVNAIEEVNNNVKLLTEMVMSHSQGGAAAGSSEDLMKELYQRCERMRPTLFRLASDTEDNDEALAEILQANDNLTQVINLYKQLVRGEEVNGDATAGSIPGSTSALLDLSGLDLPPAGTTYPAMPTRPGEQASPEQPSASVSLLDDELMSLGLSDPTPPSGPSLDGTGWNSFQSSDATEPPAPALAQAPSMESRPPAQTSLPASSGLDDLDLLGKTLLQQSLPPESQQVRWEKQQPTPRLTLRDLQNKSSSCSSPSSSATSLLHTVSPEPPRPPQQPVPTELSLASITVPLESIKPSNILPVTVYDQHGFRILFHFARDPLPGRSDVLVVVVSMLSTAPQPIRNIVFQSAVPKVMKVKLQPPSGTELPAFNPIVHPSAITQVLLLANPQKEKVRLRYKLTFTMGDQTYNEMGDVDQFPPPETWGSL

effect of a mutation on the interaction: decreasing interaction
Substance: ADP-ribosylation factor 1 (Homo sapiens), P84077 T32N
